From the supplement of paper PMC9112550, “Optimization of the antimicrobial peptide Bac7 by deep mutational scanning” (BMC Biology, 2022)

System: Escherichia coli TOP10
Experiment: shrunken log2 fold change of peptide-encoding DNA abundance (4.5 h post-induction vs induction); higher = less antimicrobial activity (less host growth inhibition)
Conditions: time post-induction: 4.5 h; library: site-saturation at positions 5, 18, 19, 20
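Note: peptides expressed intracellularly from a pBAD plasmid library in pooled LB shake-flask culture, induced with 0.3% L-arabinose, DNA abundance read by NGS, three biological replicates, DESeq2 with apeglm shrinkage.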

Sequence | shrunken log2 fold change
RRIRTRPPRLPRPRPRPTWYPRP | -0.0546
RRIRTRPPRLPRPRPRPTYWPRP | -0.00518
RRIRTRPPRLPRPRPRPTYYPRP | -0.359
RRIRTRPPRLPRPRPRPVAGPRP | -0.0116
RRIRTRPPRLPRPRPRPVALPRP | 0.0946
RRIRTRPPRLPRPRPRPVAWPRP | 0.217
RRIRTRPPRLPRPRPRPVCNPRP | -0.345
RRIRTRPPRLPRPRPRPVEPPRP | 0.00744
RRIRTRPPRLPRPRPRPVGRPRP | 0.129
RRIRTRPPRLPRPRPRPVGYPRP | 0.35
RRIRTRPPRLPRPRPRPVHCPRP | 0.0307
RRIRTRPPRLPRPRPRPVHMPRP | -0.123
RRIRTRPPRLPRPRPRPVHVPRP | 0.039
RRIRTRPPRLPRPRPRPVIQPRP | -0.202
RRIRTRPPRLPRPRPRPVITPRP | 0.0105
RRIRTRPPRLPRPRPRPVKGPRP | -0.0154
RRIRTRPPRLPRPRPRPVKPPRP | 0.00237
RRIRTRPPRLPRPRPRPVKRPRP | 0.0411
RRIRTRPPRLPRPRPRPVLWPRP | 0.117
RRIRTRPPRLPRPRPRPVMMPRP | -0.199
RRIRTRPPRLPRPRPRPVPCPRP | -0.0501
RRIRTRPPRLPRPRPRPVQKPRP | 0.296
RRIRTRPPRLPRPRPRPVSIPRP | -0.082
RRIRTRPPRLPRPRPRPVTQPRP | 0.0354
RRIRTRPPRLPRPRPRPVTTPRP | -0.116

Sequence | shrunken log2 fold change
RRIRTRPPRLPRPRPRPVVKPRP | -0.189
RRIRTRPPRLPRPRPRPVVRPRP | -0.00389
RRIRTRPPRLPRPRPRPVYSPRP | -0.239
RRIRTRPPRLPRPRPRPWATPRP | -0.00422
RRIRTRPPRLPRPRPRPWEGPRP | 0.0154
RRIRTRPPRLPRPRPRPWFGPRP | 0.0864
RRIRTRPPRLPRPRPRPWFMPRP | -0.364
RRIRTRPPRLPRPRPRPWFSPRP | -0.152
RRIRTRPPRLPRPRPRPWITPRP | 0.0633
RRIRTRPPRLPRPRPRPWKQPRP | 0.0162
RRIRTRPPRLPRPRPRPWLHPRP | -0.166
RRIRTRPPRLPRPRPRPWMHPRP | 0.032
RRIRTRPPRLPRPRPRPWMWPRP | 0.101
RRIRTRPPRLPRPRPRPWNAPRP | -0.00214
RRIRTRPPRLPRPRPRPWNFPRP | -0.0511
RRIRTRPPRLPRPRPRPWPKPRP | 0.218
RRIRTRPPRLPRPRPRPWPNPRP | -0.124
RRIRTRPPRLPRPRPRPWPQPRP | 0.323
RRIRTRPPRLPRPRPRPWQKPRP | -0.1
RRIRTRPPRLPRPRPRPWSPPRP | -0.37
RRIRTRPPRLPRPRPRPWSTPRP | -0.14
RRIRTRPPRLPRPRPRPWTPPRP | -0.00155
RRIRTRPPRLPRPRPRPWTTPRP | 0.176
RRIRTRPPRLPRPRPRPWWRPRP | -0.00919
RRIRTRPPRLPRPRPRPWWWPRP | -0.0964

Sequence | shrunken log2 fold change
RRIRTRPPRLPRPRPRPYAKPRP | -0.0117
RRIRTRPPRLPRPRPRPYCGPRP | -0.294
RRIRTRPPRLPRPRPRPYDTPRP | -0.661
RRIRTRPPRLPRPRPRPYEHPRP | -0.0707
RRIRTRPPRLPRPRPRPYEIPRP | -0.453
RRIRTRPPRLPRPRPRPYEPPRP | -0.18
RRIRTRPPRLPRPRPRPYGEPRP | -0.074
RRIRTRPPRLPRPRPRPYGFPRP | -0.315
RRIRTRPPRLPRPRPRPYKKPRP | -0.317
RRIRTRPPRLPRPRPRPYKWPRP | -0.0875
RRIRTRPPRLPRPRPRPYLYPRP | -0.702
RRIRTRPPRLPRPRPRPYSEPRP | -0.212
RRIRTRPPRLPRPRPRPYVNPRP | -0.189
RRIRTRPPRLPRPRPRPYVQPRP | -0.0752
RRIRTRPPRLPRPRPRPYVSPRP | -0.244
RRIRTRPPRLPRPRPRPYWIPRP | -0.0377
RRIRVRPPRLPRPRPRPAATPRP | 0.609
RRIRVRPPRLPRPRPRPACRPRP | -0.132
RRIRVRPPRLPRPRPRPADCPRP | 0.0869
RRIRVRPPRLPRPRPRPADWPRP | 0.379
RRIRVRPPRLPRPRPRPAFTPRP | -0.124
RRIRVRPPRLPRPRPRPAGEPRP | 0.339
RRIRVRPPRLPRPRPRPAHEPRP | 0.205
RRIRVRPPRLPRPRPRPAHPPRP | 0.0808
RRIRVRPPRLPRPRPRPAHQPRP | 0.317
